Test results from publication PMC7304575, “Cryo-EM structure of the nonameric CsgG-CsgF complex and its implications for controlling curli biogenesis in Enterobacteriaceae” (PLoS Biology, 2020).

B1: CsgF_(20–53)-GST (domain or fragment, E. coli, UniProt P0AE98 20-53, looked up)
chain: GTMTFQFRNPNFGGNPNNGAFLLNSAQAQNSYKD
notes: CsgF, E. coli, residues 20-53 (N-terminus of the mature CsgF); numbers count on the full-length precursor; also called CsgF_(20–53) fused to GST C-terminally; source: E. coli BL21 (DE3), purified; not shown: GST, C-terminal, kept
B2: chymotrypsin-digested CsgG (residues 47–252) of the CsgG-CsgF_(20–59) complex (domain or fragment, E. coli, UniProt P0AEA2 47-252, looked up)
chain: GKIFVSVYNIQDETGQFKPYPASNFSTAVPQSATAMLVTALKDSRWFIPLERQGLQNLLNERKIIRAAQENGTVAINNRIPLQSLTAANIMVEGSIIGYESNVKSGGVGARYFGIGADTQYQLDQIAVNLRVVNVSTGEILSSVNTSKTILSYEVQAGVFRFIDYQRLLEGEVGYTSNEPVMLCLMSAIETGVIFLINDGIDRGLW
notes: numbers count on the full-length precursor; The His tag goes with the C-terminal residues that chymotrypsin removed; source: E. coli BL21 (DE3), co-expressed with CsgF, purified (Ni-NTA), chymotrypsin proteolysis, size exclusion chromatography; not shown: His6, C-terminal, cleaved
B3: CsgG with a C-terminal 6×His tag (natural protein, E. coli, UniProt P0AEA2 16-277, looked up)
chain: CLTAPPKEAARPTLMPRAQSYKDLTHLPAPTGKIFVSVYNIQDETGQFKPYPASNFSTAVPQSATAMLVTALKDSRWFIPLERQGLQNLLNERKIIRAAQENGTVAINNRIPLQSLTAANIMVEGSIIGYESNVKSGGVGARYFGIGADTQYQLDQIAVNLRVVNVSTGEILSSVNTSKTILSYEVQAGVFRFIDYQRLLEGEVGYTSNEPVMLCLMSAIETGVIFLINDGIDRGLWDLQNKAERQNDILVKYRHMSVPPES
notes: CsgG, E. coli K12 MG1655; the full-length csgG gene was expressed and the protein purified from outer membranes; the structure holds residues 16-272 with the C-terminal 5 residues invisible (so 16-277); numbers count on the full-length precursor; also called CsgGHis; C-terminally His-tagged CsgG; not shown: His6, C-terminal, kept

Assays:
[1] = biological target: B3; test: pull-down; GST fusions or GST (approximately 0.1 mg) immobilised on glutathione sepharose, approximately 0.2 mg CsgG added, 1 hour at 4°C; washed with 20 mM Tris-HCl pH 7.5, 150 mM NaCl, 5% glycerol, 0.1% DDM; SDS-PAGE and anti-His western blot; conditions: both partners purified
[2] = biological target: the molecule itself; test: cryo-EM structure; chymotrypsin-digested CsgG-CsgF_(20–59) complex in 20 mM Tris-HCl pH 8.0, 150 mM NaCl, 0.06% DDM; filaments on the grid; maps at 2.9 Å (head-to-head, D9) and 3.2 Å (head-to-tail, C9)
[3] = biological target: the molecule itself; test: cryo-EM structure; full-length CsgG-CsgF complex, co-expressed and co-purified in DDM; map at 3.6 Å

B1: binds [1].

For B2, the “stoichiometry N” value [2] was 9.

For B3, the “stoichiometry N” value [3] was 9.
